Test results from PMC4621513.

Molecular target: APOBEC3G (A3G) protein, Q9HC16
Assay: AFM topographic imaging (protein volume); A3G mixed 2:1 with hybrid DNA substrate (418 bp duplex with 69 nt ssDNA overhang, deaminase specific or nonspecific) in 50 mM HEPES pH 7.5, 100 mM NaCl, 5 mM MgCl2, 1 mM DTT, 15 min at 37 °C; deposited on APS-mica, imaged in air; protein volume converted to mass; stoichiometry of A3G on the ssDNA
Settings: remark: other sources report otherwise

stoichiometry N: 2
B1: APOBEC3G (A3G) protein, Q9HC16 1-384 (enzyme)
chain: MKPHFRNTVERMYRDTFSYNFYNRPILSRRNTVWLCYEVKTKGPSRPPLDAKIFRGQVYSELKYHPEMRFFHWFSKWRKLHRDQEYEVTWYISWSPCTKCTRDMATFLAEDPKVTLTIFVARLYYFWDPDYQEALRSLCQKRDGPRATMKIMNYDEFQHCWSKFVYSQRELFEPWNNLPKYYILLHIMLGEILRHSMDPPTFTFNFNNEPWVRGRHETYLCYEVERMHNDTWVLLNQRRGFLCNQAPHKHGFLEGRHAELCFLDVIPFWKLDLDQDYRVTCFTSWSPCFSCAQEMAKFISKNKHVSLCIFTARIYDDQGRCQEGLRTLAEAGAKISIMTYSEFKHCWDTFVDHQGCPFQPWDGLDEHSQDLSGRLRAILQNQEN
